Assay results: patent publication US20240368269A1 (Memorial Sloan Kettering, published 2024)

Legend:
[1] = target: T1, hDLL3 (human, UniProt Q9NYJ7 27-492, limits assumed); experiment: Affinity hDLL3 of Table 30; method not given
T1 construct: also called human DLL3
T1 sequence: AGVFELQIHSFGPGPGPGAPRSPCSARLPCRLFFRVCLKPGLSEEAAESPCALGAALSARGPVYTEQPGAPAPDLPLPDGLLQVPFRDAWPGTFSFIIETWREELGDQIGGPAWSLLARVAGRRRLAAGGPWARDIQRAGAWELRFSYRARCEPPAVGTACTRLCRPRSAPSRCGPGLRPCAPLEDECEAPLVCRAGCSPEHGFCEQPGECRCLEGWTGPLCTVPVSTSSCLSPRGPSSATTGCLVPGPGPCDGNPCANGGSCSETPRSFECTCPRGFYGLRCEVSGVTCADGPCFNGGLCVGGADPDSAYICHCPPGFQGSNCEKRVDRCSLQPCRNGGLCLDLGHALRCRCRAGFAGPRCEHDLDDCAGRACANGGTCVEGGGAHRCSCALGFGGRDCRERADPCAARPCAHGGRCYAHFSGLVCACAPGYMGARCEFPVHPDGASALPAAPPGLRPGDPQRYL

[2] = target: T2, DLL3 (target in the Fab-Zap internalization assay) (UniProt Q9NYJ7 27-618, limits assumed); experiment: cell-based or functional assay
T2 sequence (looked up): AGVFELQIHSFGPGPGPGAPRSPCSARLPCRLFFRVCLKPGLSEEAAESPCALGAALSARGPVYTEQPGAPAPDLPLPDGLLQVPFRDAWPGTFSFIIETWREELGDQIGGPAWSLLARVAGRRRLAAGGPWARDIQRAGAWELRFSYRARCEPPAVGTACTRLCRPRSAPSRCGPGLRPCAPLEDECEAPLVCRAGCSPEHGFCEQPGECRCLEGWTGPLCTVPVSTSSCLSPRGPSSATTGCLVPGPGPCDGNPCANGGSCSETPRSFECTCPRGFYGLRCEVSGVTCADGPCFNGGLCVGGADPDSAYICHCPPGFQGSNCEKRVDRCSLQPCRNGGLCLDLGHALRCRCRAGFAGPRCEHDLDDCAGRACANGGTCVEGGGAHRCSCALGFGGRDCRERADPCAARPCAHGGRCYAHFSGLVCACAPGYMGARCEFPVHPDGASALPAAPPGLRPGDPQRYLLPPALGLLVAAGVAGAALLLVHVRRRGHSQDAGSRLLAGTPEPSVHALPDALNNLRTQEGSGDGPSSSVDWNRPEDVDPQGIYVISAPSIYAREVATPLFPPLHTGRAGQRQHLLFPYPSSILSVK

B1: B2 (antibody, V domains shown)
VH: QVQLVQSGAEVKKPGASVKVSCKASGYTFTSYYMHWVRQAPGQGLEWMGIINPSGGSTSYAQKFRGRVTMTRDTSTSTVYMELSSLRSEDTAVYYCARGDYDILTDYYYNMDVWGQGTTVTVSS
VL: DIQMTQSPSAMSASVGDRVTITCRASQGISNYLAWFQQKPGKVPKRLIYAASSLQSGVPSRFSGSGSGTEFTLTISSLQPEDFATYYCLQHNSYPYTFGQGTKLEIK
notes: Purified hybridoma monoclonal antibody (Ablexis AlivaMab Kappa mice); format there not clear; also called 3-B2-A
[1]
  Kd: 3.55 nM
[2]
  Percent Max Killing (Fab-Zap internalization assay, 10 ug/ml): 71.4%

B2: E9 (antibody, V domains shown)
VH: QVQLVQSGAEVKKPGASVKVSCKASGYTFTSYYMHWVRQAPGQGLEWMGVINSSGGSTSYAQKFQGRVTMTRDTSTSTVYMDLSSLRSEDTAVYYCARGYCTNGVYYDEDFDYWGQGTLVTVSS
VL: DIQMTQSPSSLSASVGDRVTITCRASQGISHYLAWFQQKPGKAPTSLIYAASSLQSGVPSKFSGSGSGTDFTLTISSLQPEDFATYYCQQYNSYPLTFGGGTKVEIK
[2]
  Percent Max Killing (Fab-Zap internalization assay, 10 ug/ml): 61.4%

B3: G23 (antibody, V domains shown)
VH: QVQLVQSGAEVKKPGASVKVSCKASGYTFTSYYIHWVRQAPGQGLEWMGIIDPSDGSTNYAQKFQGRVTMTRDTSTSTVYMELSSLRSEDTAVYYCARDREYNYYGLDVWGQGTTVTVSS
VL: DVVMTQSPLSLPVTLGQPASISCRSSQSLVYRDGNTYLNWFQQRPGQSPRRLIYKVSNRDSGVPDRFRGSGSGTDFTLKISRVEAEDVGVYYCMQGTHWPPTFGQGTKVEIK
[2]
  Percent Max Killing (Fab-Zap internalization assay, 10 ug/ml): 94%

B4: I1 (antibody, V domains shown)
VH: EVQLVESGGGLVKPGGSLRLSCAASGFTFSNTWMSWVRQAPGKGLEWVGRIKSKSDGGTTDYAAPVKGRFTISRDDSKNTLYLQMNSLKTEDTAVYYCTQYYWNSFDYWGQGTLVTVSS
VL: not shown
[2]
  Percent Max Killing (Fab-Zap internalization assay, 10 ug/ml): 97%
